Three molecules from patent publication US20250304677A1 (VIB VZW, published 2025) can be followed below.

In general, Kd refers to the free concentration of one partner at which half of the binding sites on the other are occupied at equilibrium, for simple one-to-one binding. The koff is the rate constant with which the complex falls apart. By kon is commonly meant a measure of how fast the partners come together.

For test [1], the target named is human FOLR1/2 chimera 2 (human, UniProt P15328 25-234). In words: flow cytometry, transfected HEK293T cells. As to the method: (§1) Chimera 1 SEQ ID No. 67) and 7 ^{∘}Ch7; SEQ ID No. 73) also contain an additional residue change at a separate location. […] HEK293T cells were transfected with hFOLR1, hFOLR2, one of the hFOLR1/2 chimeric constructs ^{∘}FIG. 2B) or single residue mutants ^{∘}FIG. 2C). Binding of VHHs 2HFO19, 2HFO42, 3MFR60, and a mouse anti-FOLR1 monoclonal antibody ^{∘}mAb) was detected using a mouse anti-His tag antibody for the VHHs followed by an anti-mouse-phycoerythrin antibody. All VHHs were tested at a concentration of 200 nM and untransfected cells were used as a negative control. The colors used for the VHHs represent the different CDR3 families; blue: family 1, green: family 3, grey: family 10.
Sequence of human FOLR1/2 chimera 2 (P15328 other isoform, or with tags, fused parts or gaps mutant limits assumed): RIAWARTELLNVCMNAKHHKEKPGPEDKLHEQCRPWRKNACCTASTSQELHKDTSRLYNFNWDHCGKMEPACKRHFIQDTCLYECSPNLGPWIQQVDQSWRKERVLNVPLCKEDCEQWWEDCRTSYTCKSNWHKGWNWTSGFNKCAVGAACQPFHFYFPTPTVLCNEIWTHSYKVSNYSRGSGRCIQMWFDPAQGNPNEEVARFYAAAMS
(§2) To identify the exact region in which the VHHs bind to FRα, epitope mapping experiments were performed. Since the VHHs are able to bind human FRα, but not FRβ, we generated seven human FOLR1/2 chimeric constructs where regions of human FOLR1 were replaced by the corresponding human FOLR2 ^{∘}FRβ) regions ^{∘}FIG. 2A): chimera 1 SEQ ID No. 67), chimera 2 ^{∘}SEQ ID No. 68), chimera 3 ^{∘}SEQ ID No. 69), chimera 4 ^{∘}SEQ ID No. 70), chimera 5 ^{∘}SEQ ID No. 71), chimera 6 ^{∘}SEQ ID No. 72) and chimera 7 ^{∘}SEQ ID No. 73). Three additional chimera 1 constructs were made: chimera 1a ^{∘}replacing fragment 31-40; SEQ ID No. 74), chimera 1b ^{∘}replacing fragment 41-50; SEQ ID No. 75) and chimera 1c ^{∘}replacing fragment 51-64; SEQ ID NO. 76). The constructs were transiently transfected into HEK293T cells and dose-dependent binding of the VHHs to the wild-types FRα and FRβ ^{∘}WTs) or the chimeric constructs was assessed via flow cytometry via detection of the tag ^{∘}FIG. 2B). […] Different anti-FRα VHHs were able to bind to cell-expressed FRα-FRβ chimeras to a similar level as WT FRα, with the exception of chimera 4 ^{∘}SEQ ID No. 70) where the binding was completely abolished for all VHHs.
(In general: A flow cytometer gives signals particle by particle.)

Test [2] addresses human FOLR1/2 chimera 3 (human, UniProt P15328 25-234). Briefly: flow cytometry, transfected HEK293T cells. As for the experimental part:
as §1, §2

Test [3] addresses human FOLR1/2 chimera 5 (human, UniProt P15328 25-234). Briefly: flow cytometry, transfected HEK293T cells. As to the method: as §1, §2
Test [4] deals with human FOLR1/2 chimera 6 (human, UniProt P15328 25-234). Briefly: flow cytometry, transfected HEK293T cells. As to the method: as §1, §2
Sequence of human FOLR1/2 chimera 6 (P15328 other isoform, or with tags, fused parts or gaps mutant limits assumed): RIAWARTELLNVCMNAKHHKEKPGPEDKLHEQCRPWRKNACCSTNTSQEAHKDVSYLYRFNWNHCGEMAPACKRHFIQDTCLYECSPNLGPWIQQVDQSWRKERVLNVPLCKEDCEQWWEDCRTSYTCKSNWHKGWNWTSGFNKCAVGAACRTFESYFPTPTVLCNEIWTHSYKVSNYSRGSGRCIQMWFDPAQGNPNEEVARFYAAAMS
Test [5] deals with T1, human FOLR1/2 chimera 7 (human, UniProt P15328 25-234).
T1 construct: also called Ch7
T1 sequence (P15328 other isoform, or with tags, fused parts or gaps mutant limits assumed): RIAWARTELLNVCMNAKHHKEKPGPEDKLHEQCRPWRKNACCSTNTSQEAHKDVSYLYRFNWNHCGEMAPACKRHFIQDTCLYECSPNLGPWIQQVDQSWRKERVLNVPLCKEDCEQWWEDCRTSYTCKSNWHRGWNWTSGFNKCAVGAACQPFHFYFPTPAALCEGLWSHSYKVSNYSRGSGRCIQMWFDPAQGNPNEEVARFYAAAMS
In words: flow cytometry, transfected HEK293T cells. As to the method: as §1, §2

Test [6] concerns the target T2, human FOLR1/2 chimera 1 (human, UniProt P15328 25-234).
T2 construct: on transfected HEK293T cells
Briefly: flow cytometry, transfected HEK293T cells. As for the experimental part:
as §1, §2

Test [7] concerns the target T3, human FOLR1/2 chimera 1a (replacing fragment 31-40) (human, UniProt P15328 25-234).
T3 construct: Transiently expressed on HEK293T cells
In words: flow cytometry, transfected HEK293T cells. As to the method: as §1, §2

In test [8] the target is T4, human FOLR1/2 chimera 1b (replacing fragment 41-50) (human, UniProt P15328 25-234).
T4 construct: Transiently expressed on HEK293T cells
T4 sequence (P15328 other isoform, or with tags, fused parts or gaps mutant limits assumed): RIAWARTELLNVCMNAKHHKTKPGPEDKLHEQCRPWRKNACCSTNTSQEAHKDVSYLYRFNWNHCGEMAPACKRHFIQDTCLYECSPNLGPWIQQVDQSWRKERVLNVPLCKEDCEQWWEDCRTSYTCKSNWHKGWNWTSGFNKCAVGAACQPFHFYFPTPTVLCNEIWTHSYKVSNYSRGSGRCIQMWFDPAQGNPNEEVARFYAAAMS
In words: flow cytometry, transfected HEK293T cells. As for the experimental part: as §1, §2

Test [9] has as its target T5, human folate receptor alpha (hFRα), recombinant protein (human, UniProt P15328 25-233).
T5 construct: Bought recombinant proteins (His-tagged, or biotinylated via Avi-tag, e.g. AcroBiosystems FO1-H82E2, F01-H52H1); also called hFOLR1; huFOLR1
In words: BLI, FRα on AR2G biosensors, 1:1 model. As to the method:
(§3) As a next step, the kinetic binding constants were determined using BLI ^{∘}Table 3). […] Similar to the ELISA results ^{∘}FIG. 1A-B), higher binding affinities were measured for mouse FRα than human FRα, with KD values […] one order of magnitude in most cases. […] For 3HFO28, binding to human FRα could not be confirmed by BLI, and this VHH was excluded from further characterization.
(§4) The kinetic parameters were calculated using a 1:1 binding model.

The target in test [10] is T6, mouse folate receptor alpha (mFRα), recombinant protein (mouse, UniProt P35846 25-232).
T6 construct: Bought recombinant proteins (e.g. biotinylated, Acro Biosystems FO1-M82E9); also called mFOLR1; Ms FOLR1
T6 sequence (P35846 25-232 limits assumed): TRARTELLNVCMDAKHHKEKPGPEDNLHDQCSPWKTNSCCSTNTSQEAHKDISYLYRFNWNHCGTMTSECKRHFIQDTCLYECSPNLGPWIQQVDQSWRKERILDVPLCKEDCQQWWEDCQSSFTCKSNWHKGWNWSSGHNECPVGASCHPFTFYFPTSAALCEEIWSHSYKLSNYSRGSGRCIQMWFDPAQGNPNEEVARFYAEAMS
Briefly: BLI, FRα on AR2G biosensors, 1:1 model. As to the method:
as §3, §4

Test [11] concerns the target T6, mouse folate receptor alpha (mFRα), …. In words: BLI tandem binning on mouse FRα; competitor (1st association) 2HFO19. The text has this:
VHHs that share high sequence identity in the CDR3 region, a VHH family, are derived from the same B-cell lineage and diverged from each other due to somatic hypermutation or affinity maturation. Typically, VHHs from the same family recognize the same epitope on the target, but may differ in other characteristics ^{∘}De Genst et al 2006 PNAS 103:4586-4591; De Gents et al 2005 J Biol Chem 280:14114-14121). To study whether the VHHs from the different families bound different epitopes, epitope binning was performed using a tandem binding approach in BLI. One VHH from each family was allowed to bind to mouse FRα on the biosensor, followed by binding of the second VHH ^{∘}Table 4).
Competition between VHHs from different complementarity determining region ^{∘}CDR) 3 families was assessed in a tandem binding assay using biolayer interferometry ^{∘}BLI). Streptavidin biosensors were loaded with biotinylated mouse FRα ^{∘}Acro Biosystems, Cat.nr. FO1-M82E9), followed by binding of anti-FRα VHHs ^{∘}VHH in first association). The biosensors were then transferred to a solution containing a second VHH mixed 1:1 with the first VHH ^{∘}VHH in second association). Using the FortéBio Data Analysis Software the absolute additional binding signal for the second association on top of the first association was calculated. The data were normalized per VHH in first association using the following formula: ^{∘}signal-self)/^{∘}maximum-self) with self being the value of the VHH in first association in combination with the same VHH in second association.

Sequence of human FOLR1/2 chimera 3 (P15328 other isoform, or with tags, fused parts or gaps mutant limits assumed): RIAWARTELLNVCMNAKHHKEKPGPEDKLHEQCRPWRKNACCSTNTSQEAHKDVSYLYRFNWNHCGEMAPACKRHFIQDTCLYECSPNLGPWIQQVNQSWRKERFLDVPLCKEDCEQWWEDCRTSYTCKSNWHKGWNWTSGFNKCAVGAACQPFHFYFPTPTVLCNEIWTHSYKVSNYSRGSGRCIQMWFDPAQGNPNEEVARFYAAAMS
Sequence of human FOLR1/2 chimera 5 (P15328 other isoform, or with tags, fused parts or gaps mutant limits assumed): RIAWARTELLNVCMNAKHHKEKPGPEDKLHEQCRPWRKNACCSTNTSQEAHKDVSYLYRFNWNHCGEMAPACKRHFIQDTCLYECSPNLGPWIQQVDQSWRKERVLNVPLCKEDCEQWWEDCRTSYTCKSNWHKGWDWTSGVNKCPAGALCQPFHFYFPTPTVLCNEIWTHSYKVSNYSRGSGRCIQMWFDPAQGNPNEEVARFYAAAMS
T5 sequence (P15328 25-233 limits assumed): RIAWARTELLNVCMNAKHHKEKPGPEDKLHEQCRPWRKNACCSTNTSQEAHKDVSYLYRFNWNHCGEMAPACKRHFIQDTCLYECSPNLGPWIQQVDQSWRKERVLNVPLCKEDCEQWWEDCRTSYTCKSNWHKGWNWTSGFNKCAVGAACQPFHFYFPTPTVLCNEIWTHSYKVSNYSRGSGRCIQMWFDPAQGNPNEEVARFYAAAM
T3 sequence (P15328 other isoform, or with tags, fused parts or gaps mutant limits assumed): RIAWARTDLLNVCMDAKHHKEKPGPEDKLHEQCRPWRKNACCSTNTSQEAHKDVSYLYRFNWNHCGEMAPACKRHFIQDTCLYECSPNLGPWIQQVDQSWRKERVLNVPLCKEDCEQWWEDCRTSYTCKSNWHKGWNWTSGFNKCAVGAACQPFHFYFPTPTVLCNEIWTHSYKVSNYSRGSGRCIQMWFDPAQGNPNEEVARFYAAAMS
T2 sequence (P15328 other isoform, or with tags, fused parts or gaps mutant limits assumed): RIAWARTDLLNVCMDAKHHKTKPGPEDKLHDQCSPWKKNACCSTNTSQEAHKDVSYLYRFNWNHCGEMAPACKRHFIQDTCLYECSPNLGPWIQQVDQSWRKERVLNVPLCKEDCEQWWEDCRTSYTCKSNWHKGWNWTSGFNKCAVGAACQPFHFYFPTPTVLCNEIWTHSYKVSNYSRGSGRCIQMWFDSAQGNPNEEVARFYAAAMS

B1: VHH 2HFO42 (family 3) (VHH)
VHH: QVQLQESGGGLVQAGGSLRLSCAASGSGFSGMIMGWYRQVPGKQRELVATVTSHGTTNYADSVKGRFTISRDNAKNTVLLQMNSLKPEDTAVYYCNAHFPGIYWGKGTQVTVSS
notes: also called 2HF042; Nb42
Consider B1, for which the binding result in [1], in test [2], in test [3], in [4], in test [5] and in [6] was “binds” throughout. For the same molecule, the binding result in [7] and in test [8] was “binds” throughout. Moreover, the Kd in [9] was 274 nM; in test [10] it was 23.8 nM. The koff in test [9] worked out at 0.0276 s⁻¹; in [10], 0.00467 s⁻¹. Moreover, the kon in test [9] was determined as 101000 M⁻¹ s⁻¹; in [10], 203000 M⁻¹ s⁻¹. Also, the “normalized additional binding in 2nd association” value (“normalized additional binding” for short) in test [11] was found to be 1%.

B2: VHH 3MFR60 (family 10) (VHH)
VHH: QVQLQESGGGLVQAGGSLRVSCAASGIIFSMNGMGWFRQAPGKQRELVASITSGGSTKYADSVKGRFTISRDNAKNTVYLQMNSLKPEDTAVYYCNIQFGSRWSTYWGQGTQVTVSS
On to B2, for which the binding result in [1], in [2], in test [3], in test [4], in [5] and in test [6] was “binds” throughout. For the same molecule, the binding result in [7] and in test [8] was “binds” in each case. For the same molecule, the Kd was 169 nM in test [9] and 2.59 nM in test [10]. Also, the results for the koff in [9] and in test [10] were 0.159 s⁻¹ and 0.00297 s⁻¹, respectively. The kon in test [9] turned out to be 938000 M⁻¹ s⁻¹; in [10] it was 1.15e+06 M⁻¹ s⁻¹. In test [11], the “normalized additional binding” value came to 6%.

B3: VHH 2HFO19 (family 1) (VHH)
VHH: QVQLQESGGGLVQPGGSLRVSCAASGFPFSTVYMSWVRQAPGKGLEWVSGINNDGGVIDYADSVKGRFTISRDNAKNTLYLQLNSLKPEDTALYFCARGRSFVATLSSSLRGQGTQVTVSS
notes: also called Nb19
Consider B3, for which the binding result in test [1], in test [2], in test [3], in test [4], in test [5] and in test [6] was “binds” each time. Also, the binding result in [7] and in test [8] was “binds” in each case. In addition, the Kd in test [9] stood at 63.7 nM; in [10] it was 2.97 nM. For the same molecule, the values for the koff in test [9] and in [10] were 0.0149 s⁻¹ and 0.00393 s⁻¹, respectively. Besides, the values for the kon in test [9] and in [10] were 233000 M⁻¹ s⁻¹ and 1.32e+06 M⁻¹ s⁻¹, respectively. In test [11], the “normalized additional binding” value came to 0%.
